Patent US20100135951

Tested on: Ser90 mutant DDX3

## GSK3
  phosphorylation (32P incorporation): GSK3 fails to phosphorylate DDX3 with a point mutation at Ser90
